Test results reported in article PMC5484534 (Molecular cell, 2017).

Experiments:
[1] = test system: Bmal1^−/−; Per2^Luc mouse fibroblasts; experiment: Circadian period of complemented Bmal1-/-; assay type: cell-based; details: stable complementation, 37°C, dexamethasone-synchronized
BMAL1 TAD = experiment: Cyclophilin acceleration of TAD switch isomerization by 15N-1H ZZ-exchange NMR; assay type: biochemical, mouse; details: room temperature (22.68°C), 400 μM 15N BMAL1 TAD + 100 μM cyclophilin, 20 mM HEPES pH 7.0 (pH 7.5 for His6GST-PPIL3), 100 mM NaCl, 2 mM TCEP
[2] = test system: W624-P625 imide bond of BMAL1 TAD; experiment: 15N-1H ZZ-exchange NMR kinetics of TAD switch isomerization; design: species or system mouse
BMAL1 = details: screen for interacting partners; ref Lipton et al., 2015; cited from earlier work
MLL1 = details: ref Wang et al., 2010; cited from earlier work
U2OS Bmal1-dLuc cells = experiment: Circadian period of U2OS Bmal1-dLuc cells with inhibitors; assay type: cell-based, human; details: 0.3% DMSO, n = 3 replicates with 2 independent assays
cyclophilin family = details: active site; ref Davis et al., 2010; cited from earlier work
[3] = test system: Bmal1^−/−; Per2^Luc fibroblasts complemented with WT or trans-locked Bmal1; experiment: CsA-induced period change in complemented Bmal1-/-; assay type: cell-based, mouse; details: particularly at 10 μM CsA
[4] = 25 °C, extrapolated from Eyring plot
[5] = 37 °C, extrapolated from Eyring plot
[6] = 55 °C, 400 μM 15N BMAL1 TAD, 10 mM MES pH 6.5, 50 mM NaCl, 10% D2O
[7] = 60 °C, 400 μM 15N BMAL1 TAD, 10 mM MES pH 6.5, 50 mM NaCl, 10% D2O
[8] = 65 °C, 400 μM 15N BMAL1 TAD, 10 mM MES pH 6.5, 50 mM NaCl, 10% D2O

## wild type Bmal1: Flag-tagged mouse Bmal1 stably complemented in cells
[1]
  circadian period: approximately 23 hours

## PPIF: mitochondrial cyclophilin [reference compound]
BMAL1 TAD
  activity on TAD switch isomerization, in words: at least as active on the TAD as the top-ranked nuclear cyclophilins

## BMAL1 TAD: Mouse BMAL1 TAD (residues 579–626), recombinant
[2]; 25 °C
  overall exchange lifetime: approximately 10 minutes
[2]; [4]
  Rate of isomerization cis➔trans: 0.00458 s⁻¹
  Rate of isomerization trans➔cis: 0.00264 s⁻¹
  Time per isomerization event cis➔trans: 218.34 s
  Time per isomerization event trans➔cis: 378.78 s
[2]; 25 °C, in words
  detection of isomerization by ZZ exchange: too slow to be detected at room temperature
[2]; [5]
  Rate of isomerization cis➔trans: 0.0233 s⁻¹
  Rate of isomerization trans➔cis: 0.0135 s⁻¹
  Time per isomerization event cis➔trans: 42.92 s
  Time per isomerization event trans➔cis: 74.07 s
[2]; 55 °C
  Time per isomerization event cis➔trans: 4.65 s
  Time per isomerization event trans➔cis: 8.06 s
[2]; [6]
  Rate of isomerization cis➔trans: 0.215 s⁻¹
  Rate of isomerization trans➔cis: 0.124 s⁻¹
[2]; 60 °C
  Time per isomerization event cis➔trans: 2.62 s
  Time per isomerization event trans➔cis: 4.55 s
[2]; [7]
  Rate of isomerization cis➔trans: 0.382 s⁻¹
  Rate of isomerization trans➔cis: 0.22 s⁻¹
[2]; 65 °C
  Time per isomerization event cis➔trans: 1.50 s
  Time per isomerization event trans➔cis: 2.60 s
[2]; [8]
  Rate of isomerization cis➔trans: 0.667 s⁻¹
  Rate of isomerization trans➔cis: 0.384 s⁻¹
[2]; ZZ exchange at increasing temperature
  temperature at which exchange cross peaks first appeared: 55 °C

## PPIA: peptidyl prolyl isomerase A, human cyclophilin
BMAL1
  co-immunoprecipitation with BMAL1: co-immunoprecipitated with BMAL1

## PPIE: human nuclear cyclophilin [reference compound]
BMAL1 TAD
  activity on TAD switch isomerization, in words: significantly increased the rate of isomerization in BMAL1
MLL1
  binding to MLL1: binds to the histone methyltransferase MLL1 to modulate its activity

## PPIH: human nuclear cyclophilin [reference compound]
BMAL1 TAD
  activity on TAD switch isomerization, in words: significantly increased the rate of isomerization in BMAL1

## CC1(C)[C@H](C(=O)O[C@H](C#N)c2cccc(Oc3ccccc3)c2)[C@@H]1C=C(Br)Br [Deltamethrin]
U2OS Bmal1-dLuc cells
  effect on circadian period: did not elicit a change in period

## Cyclosporin A [CsA]
Cyclophilin family
  affinity for cyclophilin family: 5 to 500 nM
[3]
  switch-independent effect on period: Switch-independent changes in period
U2OS Bmal1-dLuc cells
  effect on circadian period: dose-dependent lengthening of circadian period with low doses
